We go through one sequence from patent US20090269356.

The data set concerns the target complement C5 (full length) (Homo sapiens) (UniProt P01031). The experiment in a line: filter. The following applies: dRmY: A,G deoxy; C,U 2'-OMe; dot blot, DPBS.

Sequence of complement C5 (full length) (Homo sapiens) (P01031 whole entry): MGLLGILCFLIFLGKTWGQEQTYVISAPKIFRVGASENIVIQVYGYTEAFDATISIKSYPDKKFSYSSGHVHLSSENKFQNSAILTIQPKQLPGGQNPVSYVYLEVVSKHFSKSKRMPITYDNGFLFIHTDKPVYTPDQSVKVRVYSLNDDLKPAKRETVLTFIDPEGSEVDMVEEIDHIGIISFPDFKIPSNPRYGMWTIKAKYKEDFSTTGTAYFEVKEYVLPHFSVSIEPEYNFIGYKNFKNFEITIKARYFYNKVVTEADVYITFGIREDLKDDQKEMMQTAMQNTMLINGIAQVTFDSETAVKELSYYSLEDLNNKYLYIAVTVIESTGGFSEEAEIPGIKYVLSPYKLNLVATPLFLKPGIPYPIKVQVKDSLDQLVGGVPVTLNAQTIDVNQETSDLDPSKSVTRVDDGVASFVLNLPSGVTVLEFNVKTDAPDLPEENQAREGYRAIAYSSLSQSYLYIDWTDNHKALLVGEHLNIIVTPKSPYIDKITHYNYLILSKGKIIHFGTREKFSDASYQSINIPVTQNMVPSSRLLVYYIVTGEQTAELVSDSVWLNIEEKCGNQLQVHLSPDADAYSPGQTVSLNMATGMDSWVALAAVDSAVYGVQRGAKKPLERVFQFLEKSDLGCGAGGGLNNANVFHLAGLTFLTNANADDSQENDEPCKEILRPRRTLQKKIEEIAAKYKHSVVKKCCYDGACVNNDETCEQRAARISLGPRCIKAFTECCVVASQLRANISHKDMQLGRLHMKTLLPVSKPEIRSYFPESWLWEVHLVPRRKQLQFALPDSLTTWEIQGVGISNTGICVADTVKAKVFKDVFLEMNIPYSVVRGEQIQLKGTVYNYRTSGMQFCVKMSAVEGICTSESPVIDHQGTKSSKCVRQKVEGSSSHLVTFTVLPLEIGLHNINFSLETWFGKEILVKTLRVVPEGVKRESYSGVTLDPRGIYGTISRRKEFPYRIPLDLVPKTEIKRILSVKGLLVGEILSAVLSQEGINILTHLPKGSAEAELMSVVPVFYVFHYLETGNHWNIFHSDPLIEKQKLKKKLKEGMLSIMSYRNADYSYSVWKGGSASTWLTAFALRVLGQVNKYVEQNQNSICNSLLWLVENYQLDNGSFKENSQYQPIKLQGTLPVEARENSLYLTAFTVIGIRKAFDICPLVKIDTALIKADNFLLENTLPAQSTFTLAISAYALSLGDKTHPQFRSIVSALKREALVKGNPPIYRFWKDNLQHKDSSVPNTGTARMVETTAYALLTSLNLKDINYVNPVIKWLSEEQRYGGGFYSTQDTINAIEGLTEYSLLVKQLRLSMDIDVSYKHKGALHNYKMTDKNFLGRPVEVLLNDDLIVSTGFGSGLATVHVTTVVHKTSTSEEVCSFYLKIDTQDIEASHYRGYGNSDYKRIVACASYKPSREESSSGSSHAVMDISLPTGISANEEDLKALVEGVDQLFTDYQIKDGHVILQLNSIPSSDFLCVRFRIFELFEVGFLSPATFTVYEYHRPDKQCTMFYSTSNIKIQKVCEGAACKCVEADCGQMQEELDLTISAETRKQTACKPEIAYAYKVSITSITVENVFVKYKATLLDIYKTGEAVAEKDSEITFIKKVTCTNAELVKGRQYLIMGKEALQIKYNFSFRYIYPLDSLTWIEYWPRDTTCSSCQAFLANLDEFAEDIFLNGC

Regarding “GGGAGAGGAGAGAACGUUCUACCUUGGUUUGGCNCAGGCAUANAUACGCACGGGUCGAUCGGUUACGACUAGCAU [doped clone SEQ 96]”, the Kd is 84 nM. This lies in the double-digit nanomolar range.

In general, Kd refers to the concentration at which binding is half-saturated. Low readings indicate higher affinity, high ones lower affinity.
